The text below walks through data of paper PMC12965321.

The assay deals with RING1 [the product of Sex combs extra (Sce) gene] (D. melanogaster (endogenous in embryos)) (UniProt Q9VB08). As to the kind of experiment: co-IP; nuclear extract of RYBP-KO, Siesta-Strep embryos (no RYBP), dialysed against 25 mM Hepes-KOH pH 7.6, 0.1 M KCl; anti-RING1 cross-linked to Dynabeads or Strep-Tactin Sepharose, 0.02% NP-40, overnight at 4°C; Western blot; compared with Siesta-Strep extract.
Sequence of UniProt Q9VB08 (Q9VB08 whole entry): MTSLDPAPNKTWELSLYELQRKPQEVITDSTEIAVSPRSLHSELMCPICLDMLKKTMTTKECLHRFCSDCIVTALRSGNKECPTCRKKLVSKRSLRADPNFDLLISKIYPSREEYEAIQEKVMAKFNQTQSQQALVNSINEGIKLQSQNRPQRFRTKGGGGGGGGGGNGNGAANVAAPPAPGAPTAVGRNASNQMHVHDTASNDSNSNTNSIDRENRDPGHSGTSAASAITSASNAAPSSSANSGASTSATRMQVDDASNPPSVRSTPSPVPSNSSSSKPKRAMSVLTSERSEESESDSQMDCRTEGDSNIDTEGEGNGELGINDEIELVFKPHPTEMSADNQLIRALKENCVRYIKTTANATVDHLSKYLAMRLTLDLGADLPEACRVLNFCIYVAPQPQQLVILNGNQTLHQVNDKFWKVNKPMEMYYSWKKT

As for “Twin-Strep-tagged and Myc-tagged Siesta protein (natural protein)”, the fold reduction of coimmunoprecipitation without RYBP against extract with RYBP was more than 6 fold.
